Results published in PMC6497270, “Thermodynamic investigation of DNA-binding affinity of wild-type and mutant transcription factor RUNX1”.

How the values were obtained:
RUNX1 K83R = RUNX1 K83R (Homo sapiens, UniProt Q01196 1-181, K83R); experiment: ITC; without CBFβ; ITC: 20 uM RUNX1 in cell, 100 uM DNA in syringe, 10 mM HEPES-NaOH pH 7.5, 180 mM NaCl, 0.005% Tween 20; temperature stated as 277 K (Methods) but 25 °C (Results); conditions: protein: recombinant; tags: N-terminal His6; (21 bp)
RUNX1 K83R/H179K = RUNX1 K83R/H179K (Homo sapiens, UniProt Q01196 1-181, K83R;H179K); experiment: as above; conditions: protein: recombinant; tags: N-terminal His6; (21 bp)
RUNX1 K83R/H179K, sequence (Q01196 1-181 K83R/H179K): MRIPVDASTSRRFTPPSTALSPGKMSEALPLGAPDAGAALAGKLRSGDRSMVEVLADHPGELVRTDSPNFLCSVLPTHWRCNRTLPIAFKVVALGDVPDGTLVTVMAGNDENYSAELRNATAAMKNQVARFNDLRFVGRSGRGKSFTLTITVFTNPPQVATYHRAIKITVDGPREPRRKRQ

[1] = molecular target: RUNX1 WT (RUNT-containing) (Homo sapiens, UniProt Q01196 1-181); experiment: as above; conditions: protein: recombinant; tags: N-terminal His6; (21 bp)
RUNX1 WT (RUNT-containing), sequence (Q01196 1-181): as the sequence (Q01196 1-181 K83R/H179K) above, with R83K, K179H counted along it

RUNX1 H179K = RUNX1 H179K (Homo sapiens, UniProt Q01196 1-181, H179K); experiment: as above; conditions: protein: recombinant; tags: N-terminal His6; (21 bp)
RUNX1 H179K, sequence (Q01196 1-181 H179K): as the sequence (Q01196 1-181 K83R/H179K) above, with R83K counted along it

RUNX1 R139Q = RUNX1 R139Q (Homo sapiens, UniProt Q01196 1-181, R139Q); experiment: as above; conditions: protein: recombinant; tags: N-terminal His6; (21 bp)
RUNX1 R139Q, sequence (Q01196 1-181 R139Q): as the sequence (Q01196 1-181 K83R/H179K) above, with R83K, R139Q, K179H counted along it

RUNX1 S114L = RUNX1 S114L (Homo sapiens, UniProt Q01196 1-181, S114L); experiment: as above; conditions: protein: recombinant; tags: N-terminal His6; (21 bp)
RUNX1 S114L, sequence (Q01196 1-181 S114L): as the sequence (Q01196 1-181 K83R/H179K) above, with R83K, S114L, K179H counted along it

RUNX1 R139Q;CBFβ = RUNX1 R139Q;CBFβ (Homo sapiens;Homo sapiens?, UniProt Q01196;Q13951 1-181;1-141, R139Q|); experiment: ITC; RUNX1:CBFβ 1:2; ITC: 20 uM RUNX1 in cell, 100 uM DNA in syringe, 10 mM HEPES-NaOH pH 7.5, 180 mM NaCl, 0.005% Tween 20; temperature stated as 277 K (Methods) but 25 °C (Results); conditions: protein: recombinant;recombinant; tags: N-terminal His6;; copies: 1;1; (21 bp)
RUNX1 R139Q;CBFβ, sequence (Q01196 1-181 R139Q, chain 1 of 2): as the sequence (Q01196 1-181 K83R/H179K) above, with R83K, R139Q, K179H counted along it
RUNX1 R139Q;CBFβ, sequence (Q13951 1-141, chain 2 of 2): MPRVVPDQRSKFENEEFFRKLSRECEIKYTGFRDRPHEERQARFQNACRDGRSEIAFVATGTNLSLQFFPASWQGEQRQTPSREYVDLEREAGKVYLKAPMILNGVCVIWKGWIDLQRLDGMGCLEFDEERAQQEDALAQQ

[2] = molecular target: RUNX1 WT (RUNT-containing);CBFβ (Homo sapiens;Homo sapiens?, UniProt Q01196;Q13951 1-181;1-141, |); experiment: as above; conditions: protein: recombinant;recombinant; tags: N-terminal His6;; copies: 1;1; (21 bp)
RUNX1 WT (RUNT-containing);CBFβ, sequence (Q01196 1-181, chain 1 of 2): as the sequence (Q01196 1-181 K83R/H179K) above, with R83K, K179H counted along it
RUNX1 WT (RUNT-containing);CBFβ, sequence (Q13951 1-141, chain 2 of 2): as the sequence (Q13951 1-141, chain 2 of 2) above

RUNX1 K83R;CBFβ = RUNX1 K83R;CBFβ (Homo sapiens;Homo sapiens?, UniProt Q01196;Q13951 1-181;1-141, K83R|); experiment: as above; conditions: protein: recombinant;recombinant; tags: N-terminal His6;; copies: 1;1; (21 bp)
RUNX1 K83R;CBFβ, sequence (Q01196 1-181 K83R, chain 1 of 2): as the sequence (Q01196 1-181 K83R/H179K) above, with K179H counted along it
RUNX1 K83R;CBFβ, sequence (Q13951 1-141, chain 2 of 2): as the sequence (Q13951 1-141, chain 2 of 2) above

RUNX1 H179K;CBFβ = RUNX1 H179K;CBFβ (Homo sapiens;Homo sapiens?, UniProt Q01196;Q13951 1-181;1-141, H179K|); experiment: as above; conditions: protein: recombinant;recombinant; tags: N-terminal His6;; copies: 1;1; (21 bp)
RUNX1 H179K;CBFβ, sequence (Q01196 1-181 H179K, chain 1 of 2): as the sequence (Q01196 1-181 K83R/H179K) above, with R83K counted along it
RUNX1 H179K;CBFβ, sequence (Q13951 1-141, chain 2 of 2): as the sequence (Q13951 1-141, chain 2 of 2) above

RUNX1 S114L;CBFβ = RUNX1 S114L;CBFβ (Homo sapiens;Homo sapiens?, UniProt Q01196;Q13951 1-181;1-141, S114L|); experiment: as above; conditions: protein: recombinant;recombinant; tags: N-terminal His6;; copies: 1;1; (21 bp)
RUNX1 S114L;CBFβ, sequence (Q01196 1-181 S114L, chain 1 of 2): as the sequence (Q01196 1-181 K83R/H179K) above, with R83K, S114L, K179H counted along it
RUNX1 S114L;CBFβ, sequence (Q13951 1-141, chain 2 of 2): as the sequence (Q13951 1-141, chain 2 of 2) above

RUNX1 K83R/H179K;CBFβ = RUNX1 K83R/H179K;CBFβ (Homo sapiens;Homo sapiens?, UniProt Q01196;Q13951 1-181;1-141, K83R;H179K|); experiment: as above; conditions: protein: recombinant;recombinant; tags: N-terminal His6;; copies: 1;1; (21 bp)
RUNX1 K83R/H179K;CBFβ, sequence (Q01196 1-181 K83R/H179K, chain 1 of 2): as the sequence (Q01196 1-181 K83R/H179K) above
RUNX1 K83R/H179K;CBFβ, sequence (Q13951 1-141, chain 2 of 2): as the sequence (Q13951 1-141, chain 2 of 2) above

RUNX1 K83E = RUNX1 K83E (Homo sapiens, UniProt Q01196 1-181, K83E); experiment: ITC; without CBFβ; no significant enthalpy change; ITC: 20 uM RUNX1 in cell, 100 uM DNA in syringe, 10 mM HEPES-NaOH pH 7.5, 180 mM NaCl, 0.005% Tween 20; temperature stated as 277 K (Methods) but 25 °C (Results); conditions: protein: recombinant; tags: N-terminal His6; (21 bp)
RUNX1 K83E, sequence (Q01196 1-181 K83E): as the sequence (Q01196 1-181 K83R/H179K) above, with R83E, K179H counted along it

RUNX1 K83E;CBFβ = RUNX1 K83E;CBFβ (Homo sapiens;Homo sapiens?, UniProt Q01196;Q13951 1-181;1-141, K83E|); experiment: ITC; RUNX1:CBFβ 1:2; no significant enthalpy change; ITC: 20 uM RUNX1 in cell, 100 uM DNA in syringe, 10 mM HEPES-NaOH pH 7.5, 180 mM NaCl, 0.005% Tween 20; temperature stated as 277 K (Methods) but 25 °C (Results); conditions: protein: recombinant;recombinant; tags: N-terminal His6;; copies: 1;1; (21 bp)
RUNX1 K83E;CBFβ, sequence (Q01196 1-181 K83E, chain 1 of 2): as the sequence (Q01196 1-181 K83R/H179K) above, with R83E, K179H counted along it
RUNX1 K83E;CBFβ, sequence (Q13951 1-141, chain 2 of 2): as the sequence (Q13951 1-141, chain 2 of 2) above

RUNX1 K83R, sequence (Q01196 1-181 K83R): as the sequence (Q01196 1-181 K83R/H179K) above, with K179H counted along it

B1: CSF-1R promoter 21 bp DNA (dsDNA)
DNA 1: CAAACTCTGTGGTTGCCTTGC
DNA 2: GCAAGGCAACCACAGAGTTTG
RUNX1 K83R
  Kd: 480 ± 150 nM
RUNX1 K83R/H179K
  Kd: 290 ± 50 nM
[1]
  Kd: 490 ± 10 nM
RUNX1 H179K
  Kd: 350 ± 120 nM
RUNX1 R139Q
  Kd: 1480 ± 510 nM
RUNX1 S114L
  Kd: 700 ± 80 nM
RUNX1 R139Q;CBFβ
  Kd: 3350 ± 800 nM
[2]
  Kd: 230 ± 50 nM
RUNX1 K83R;CBFβ
  Kd: 160 ± 30 nM
RUNX1 H179K;CBFβ
  Kd: 100 ± 40 nM
RUNX1 S114L;CBFβ
  Kd: 390 ± 80 nM
RUNX1 K83R/H179K;CBFβ
  Kd: 73 ± 5 nM
RUNX1 K83E
  binding result: no binding
RUNX1 K83E;CBFβ
  binding result: no binding
